Results: the RNAGym collection of RNA variant scans (doi:10.1073/pnas.2313332121)

B1: TPR t1 (parent)
chain: GACCAAUCUGCCCUCAGAGCUCGAGAACAUCUUCGGAUGCAGAGGAGGCAGGCUUCGGUGGCGCGAUAGCGCCAACGUCCUCAACCUCCAAUGCAUCCCACCACAUGAUGAUGCCUGAAGAGCCUUGGUUUUUUG

Variants of: B1
Assay: polymerase ribozyme fitness, log enrichment relative to wild type (log ratio); higher = more active; in vitro selection for triplet polymerase activity
Procedure, shortened: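 Frozen incubation at −7 °C formed the core of a single, triplicate in vitro selection round applied to PCR-built, transcribed mutant libraries of each subunit of a heterodimeric triplet polymerase ribozyme. Extended constructs were gel-excised, captured with streptavidin beads and amplified by RT-PCR, and input and output libraries were Illumina-sequenced with a filter of ≥10 input reads and ≥1 read per output. Fitness is the logarithm of genotype enrichment relative to wild-type enrichment, with inverse-variance-weighted replicate averaging, and the logarithm is base 2.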

Point of comparison: GACCAAUCUGCCCUCAGAGCUCGAGAACAUCUUCGGAUGCAGAGGAGGCAGGCUUCGGUGGCGCGAUAGCGACAACGUCCGCAACCUCCAAUGCAUCCCACCACAUGAUUAUGCCUGAAGAGCCUUGGUUUUUUG, “polymerase ribozyme fitness (log ratio)” value -6.47. Against it:
- GACCAAUCUGCCCUCAGAGCUCGAGAACAUCUUCGGAUGCAGAGGAGGCAGGCUUCGGUGGCGCGAUAGCGACAACGUCCUCAACCACCAAUGCAUCCCACCACAUGAUGAUGCCUGAAGAGCCUUGGUUUUUUG — higher, 0.169
- GACCAAUCUGCCCUCAGAGCUCGAGAACAUCUUCGGAUGCAGAGGAGGCAGGCUUCGGUGGCGCGAUAGCGACAACGUCCUCAACCUCCAAUGCAUCCCACCACAUGAUGAUGCCUGAAGAGCGUUGGUUUUUUG — higher, 2.23
- GACCAAUCUGCCCUCAGAGCUCGAGAACAUCUUCGGAUGCAGAGGAGGCAGGCUUCGGUGGCGCGAUAGCGACAACGUCCUCAACCUCCAAUGCAUCCCACCACAUGAUGAUGCCUGAAGAGCAUUGGUUUUUUG — higher, 1.27
- GACCAAUCUGCCCUCAGAGCUCGAGAACAUCUUCGGAUGCAGAGGAGGCAGGCUUCGGUGGCGCGAUAGCGACAACGUCCUCAACCGCCAAUGCAUCCCACCACAUGAUGGUGCCUGAAGAGCCUUGGUUUUUUG — higher, 0.26
- GACCAAUCUGCCCUCAGAGCUCGAGAACAUCUUCGGAUGCAGAGGAGGCAGGCUUCGGUGGCGCGAUAGCGACAACGUCCUCAACCUCCAAUGCAUCCCACCACAUGAUGAUGCCUAAAGAGCCUUGGUUUUUUG — higher, -1.19
- GACCAAUCUGCCCUCAGAGCUCGAGAACAUCUUCGGAUGCAGAGGAGGCAGGCUUCGGUGGCGCGAUAGCGACAACGUCCUCAACCUCCAAUGCAUCCCACCACAUGAUAAUGCCUGAAGAGCCUUGGUUUUUUG — higher, -1.01
- GACCAAUCUGCCCUCAGAGCUCGAGAACAUCUUCGGAUGCAGAGGAGGCAGGCUUCGGUGGCGCGAUAGCGACAACGUCCUCAACCUCCAAUGCAUCCCACCACAUGAAGAUGCCUGAAGAGUCUUGGUUUUUUG — higher, -6.2
- GACCAAUCUGCCCUCAGAGCUCGAGAACAUCUUCGGAUGCAGAGGAGGCAGGCUUCGGUGGCGCGAUAGCGACAACGUCCUCAACCUCCAAUGCAUCCCACCACAUGAUGAUGCCUGAAUAGCCUUGGUUUUUUG — higher, 0.158
- GACCAAUCUGCCCUCAGAGCUCGAGAACAUCUUCGGAUGCAGAGGAGGCAGGCUUCGGUGGCGCGAUAGCGACAACGUCCUCAACCUCCAAUGCAUCCCACCACAUAAUGAUGCCUGAAGAGCCUUGGUUUUUUG — higher, -4.95
- GACCAAUCUGCCCUCAGAGCUCGAGAACAUCUUCGGAUGCAGAGGAGGCAGGCUUCGGUGGCGCGAUAGCGACAACGUCCUCAAUCUCCAAUGCAUCCCACUACAUGAUGAUGCCUGAAGGGCCUUGGUUUUAUG — higher, 0.201
- GACCAAUCUGCCCUCAGAGCUCGAGAACAUCUUCGGAUGCAGAGGAGGCAGGCUUCGGUGGCGCGAUAGCGACAACGUCCUCAACCUCAAAUGCAUCCCACCACAUGAUGAUGCCUGAAGAGCCUUGGUUUUUUG — higher, -0.502
- GACCAAUCUGCCCUCAGAGCUCGAGAACAUCUUCGGAUGCAGAGGAGGCAGGCUUCGGUGGCGCGAUAGCGACAACGUCCUCAACCUCUAAUGCAUCCCACCACAUGAUGAUGCCUGAAGAGCCUUGGUUUUUUG — higher, -0.157
- GACCAAUCUGCCCUCAGAGCUCGAGAACAUCUUCGGAUGCAGAGGAGGCAGGCUUCGGUGGCGCGAUAGCGACAACGUCCUCAACCUCCAAUGCAUCCCACCACAUGAUGAUUCCUGAAAAGCCUUGGUUUAUUG — higher, -2.87
- GACCAAUCUGCCCUCAGAGCUCGAGAACAUCUUCGGAUGCAGAGGAGGCAGGCUUCGGUGGCGCGAUAGCGACAACGUCCUCAACAUCCAAUGCAUCCCACCACAUGAUGAUGCCUGAAGAGCCUUGGUUUUUUG — higher, -0.267
- GACCAAUCUGCCCUCAGAGCUCGAGAACAUCUUCGGAUGCAGAGGAGGCAGGCUUCGGUGGCGCGAUAGCGACAACGUCCUCAACCUGCAAUGCAUCCCACCACAUGAUGAUGCCUGAAGAGCAUUGGUUUUUUG — higher, 1.33
- GACCAAUCUGCCCUCAGAGCUCGAGAACAUCUUCGGAUGCAGAGGAGGCAGGCUUCGGUGGCGCGAUAGCGACAACGUCCUCAAGCUCCAAUACAUCCCACCACACGAUGAUGCCUGAAGAGCCUUGGUUUUUUG — higher, -1.13
- GACCAAUCUGCCCUCAGAGCUCGAGAACAUCUUCGGAUGCAGAGGAGGCAGGCUUCGGUGGCGCGAUAGCGACAACGUCCUCAACCUCCAAUGUAUCCCACCACAUGAUGAUGCCUGAAGAGCCUUGGUUUUUUG — higher, -0.00506
- GACCAAUCUGCCCUCAGAGCUCGAGAACAUCUUCGGAUGCAGAGGAGGCAGGCUUCGGUGGCGCGAUAGCGACAACGUCCUCAACCUCCAAUGCAUCACACCACAUGAUGAUGCCUGAAGAGCCUUGGUUAUUUG — higher, -5.63
- GACCAAUCUGCCCUCAGAGCUCGAGAACAUCUUCGGAUGCAGAGGAGGCAGGCUUCGGUGGCGCGAUAGCGACAACGUCCUCAACCUCCAAUCCAUCCCACGACAUGAUGAUGCCUGAAGAGCCUUGGUUUUUUG — lower, -6.8
- GACCAAUCUGCCCUCAGAGCUCGAGAACAUCUUCGGAUGCAGAGGAGGCAGGCUUCGGUGGCGCGAUAGCGACAACGUCCUCAACCUCCAAUGCAUCCCACCACAUGAUGAUGUCUGAAGAGCCUUGGUUUUUUG — higher, -1.24
